In USRE47123 (Sanofi, dated 2018):
Where a chain is given by its changes, count along the chain named.

Tests used:
murine EphA2 receptor = biological target: T1, murine EphA2 receptor (murine, UniProt Q03145 26-977); test: FACS, cells over-expressing murine EphA2
T1 construct: whole, on cells; also called mu-EphA2

human EphA2 receptor [1] = biological target: T2, human EphA2 receptor (human, UniProt P29317 24-976); test: FACS titration on HUVEC cells (apparent KD)
T2 construct: whole, on cells; also called hu-EphA2

[2] = biological target: T3, monkey EphA2 on VERO cells (monkey (Cercopithecus aethiops)); test: FACS titration on monkey VERO cells, non-linear regression for one-site binding (apparent KD)
T3 construct: whole, on cells

human EphA2 receptor [3] = biological target: T2, human EphA2 receptor; test: FACS titration on cells with human EphA2, non-linear regression for one-site binding (apparent KD)
human EphA2 receptor [4] = biological target: T2, human EphA2 receptor; test: FACS titration on cells with human EphA2, same protocol (apparent KD)
human EphA2 receptor [5] = biological target: T2, human EphA2 receptor; test: FACS titration on HUVEC cells, non-linear regression for one-site binding (apparent KD)

T2 sequence (P29317 24-976): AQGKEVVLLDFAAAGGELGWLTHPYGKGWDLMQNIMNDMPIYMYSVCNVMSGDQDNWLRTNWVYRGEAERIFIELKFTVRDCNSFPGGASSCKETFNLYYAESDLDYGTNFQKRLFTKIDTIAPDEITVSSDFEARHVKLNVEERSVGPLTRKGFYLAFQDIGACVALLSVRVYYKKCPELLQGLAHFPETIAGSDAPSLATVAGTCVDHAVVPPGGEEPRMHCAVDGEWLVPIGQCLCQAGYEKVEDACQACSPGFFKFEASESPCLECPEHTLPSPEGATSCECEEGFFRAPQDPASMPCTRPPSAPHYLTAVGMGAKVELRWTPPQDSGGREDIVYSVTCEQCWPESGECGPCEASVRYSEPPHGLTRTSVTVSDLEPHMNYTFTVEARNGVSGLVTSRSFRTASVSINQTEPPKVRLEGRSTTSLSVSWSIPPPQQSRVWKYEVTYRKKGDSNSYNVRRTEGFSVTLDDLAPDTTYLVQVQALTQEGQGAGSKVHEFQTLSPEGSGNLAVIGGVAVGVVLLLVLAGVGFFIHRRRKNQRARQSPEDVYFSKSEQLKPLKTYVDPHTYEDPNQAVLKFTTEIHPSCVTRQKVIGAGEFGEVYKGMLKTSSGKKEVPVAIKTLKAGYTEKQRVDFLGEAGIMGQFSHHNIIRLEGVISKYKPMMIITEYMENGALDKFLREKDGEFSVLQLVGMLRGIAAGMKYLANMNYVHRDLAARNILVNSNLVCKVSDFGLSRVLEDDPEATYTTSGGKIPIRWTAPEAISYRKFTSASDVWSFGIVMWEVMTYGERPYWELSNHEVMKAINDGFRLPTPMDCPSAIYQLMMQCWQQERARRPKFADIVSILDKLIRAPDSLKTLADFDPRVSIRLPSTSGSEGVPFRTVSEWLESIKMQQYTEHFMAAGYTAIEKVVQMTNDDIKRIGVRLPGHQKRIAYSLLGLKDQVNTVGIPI
T1 sequence (Q03145 26-977): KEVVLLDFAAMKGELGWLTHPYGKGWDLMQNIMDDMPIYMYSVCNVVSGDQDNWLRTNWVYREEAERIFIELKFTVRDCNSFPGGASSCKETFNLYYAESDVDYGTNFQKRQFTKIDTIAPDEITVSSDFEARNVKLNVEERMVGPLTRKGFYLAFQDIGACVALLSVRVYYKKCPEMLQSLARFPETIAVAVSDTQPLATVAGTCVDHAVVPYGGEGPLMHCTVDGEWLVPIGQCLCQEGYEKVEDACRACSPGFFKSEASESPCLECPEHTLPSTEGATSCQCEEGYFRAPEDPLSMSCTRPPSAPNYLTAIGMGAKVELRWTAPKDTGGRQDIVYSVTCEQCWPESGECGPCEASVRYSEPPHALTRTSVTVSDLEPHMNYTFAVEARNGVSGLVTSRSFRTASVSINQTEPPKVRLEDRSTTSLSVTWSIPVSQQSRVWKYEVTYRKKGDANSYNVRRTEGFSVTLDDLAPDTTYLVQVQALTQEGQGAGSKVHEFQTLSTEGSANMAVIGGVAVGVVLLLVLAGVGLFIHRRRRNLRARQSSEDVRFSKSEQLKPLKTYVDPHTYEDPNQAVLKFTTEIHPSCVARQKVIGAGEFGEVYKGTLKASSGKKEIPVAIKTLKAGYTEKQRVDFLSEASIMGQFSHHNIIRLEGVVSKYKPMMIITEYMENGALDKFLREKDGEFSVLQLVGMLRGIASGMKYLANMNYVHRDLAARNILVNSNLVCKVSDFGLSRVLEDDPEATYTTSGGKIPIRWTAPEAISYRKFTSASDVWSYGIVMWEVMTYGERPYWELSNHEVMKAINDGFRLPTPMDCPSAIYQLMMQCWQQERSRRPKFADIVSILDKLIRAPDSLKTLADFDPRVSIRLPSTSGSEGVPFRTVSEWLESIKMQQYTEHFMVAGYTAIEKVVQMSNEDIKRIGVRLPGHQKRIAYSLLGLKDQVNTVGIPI

B1: murine anti-EphA2 monoclonal antibody 53.2H11 (antibody, V domains shown)
VH: EVQLQQSGPELVKPGASVKISCKASGYSFTAYYMHWVKQSHVKSLEWIGLVNPYNGFSSYNQNFEDKASLTVDKFSSTAYMELHSLTSEDSAVYYCAREFYGYRYFDVWGAGTAVTVSS
VL: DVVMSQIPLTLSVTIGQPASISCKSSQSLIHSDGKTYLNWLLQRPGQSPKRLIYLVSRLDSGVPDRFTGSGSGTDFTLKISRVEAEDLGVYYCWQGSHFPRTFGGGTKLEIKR
notes: Purified murine monoclonal antibody from hybridoma PTA-7662; also called 53.2H11 antibody
**Q.** Does B1 bind (murine EphA2 receptor)?
**A.** binds

**Q.** What about the Kd (human EphA2 receptor [1]) of the same binder?
**A.** 0.06 nM

**Q.** And the Kd [2]?
**A.** 0.07 nM

**Q.** What about the Kd (human EphA2 receptor [3]) of the same binder?
**A.** 0.14 nM

B2: murine anti-EphA2 monoclonal antibody EphA2-N1 (antibody, V domains shown)
VH: EVQLQQSGPDLVKPGASVKISCKASGYRFTEYNMHWMKQSHGESLEWIGYIYPYNGDTGYRQKFKNMATLTADISSNTAYMELRSLTSDDSAVYFCARWGYGSGGGFTYWGQGTLVTVSA
VL: DIVLTQSPGSLAVSLGQRATISCRASESVDTYGNSFMHWYQQKAGQPPRLLIYRASNLESGIPARFSGSGSRTDFTLTINPVEADDVATYYCQQSNEDPLTFGAGTKLELKR
notes: Murine monoclonal antibody from hybridoma PTA-8407
**Q.** For B2, which Kd (human EphA2 receptor [4]) is on record?
**A.** 0.18 nM

B3: murine anti-EphA2 monoclonal antibody EphA2-N2 (antibody, V domains shown)
VH: EVQLQQSGPELVKPGASVKISCKASGYTFTDYNMHWVKQSHGKSLEWIGFIYPYNGGTGYNQRFKNKATLTVDTSSSTAYMEVRSLTSEDSAVYFCARGYYYGRHFDYWGQGTTLTVSS
VL: QIVLTQSPALMSASPGEKVTMTCSASSSVSYMYWYQQKPRSSPKPWIYITSNLASGVPARFSGSGSGTSYSLTISSMEAEDAATYYCQQWSSNPPTFGGGTKLEIKR
notes: Murine monoclonal antibody from hybridoma PTA-8408
**Q.** Which Kd (human EphA2 receptor [4]) does the source give for B3 here?
**A.** 0.05 nM

B4: murine anti-EphA2 monoclonal antibody 37.3D7 (antibody, V domains shown)
VH: QVQLQQPGSELVRPGASVQLSCKASGYSFTSYWMHWVRQRPGQGLQWIGNIYPGTGNTNYDEKFMNKATLTVDTYSSTTYMQLSSLTSEDSAVYYCARWGLVRYFFAMDYWGQGTSVTVSS
VL: QIVLTQSPAIMSASLGERVTMTCTVSSSVNSSYLHWYQQKPGSSPKLWIYSTSNLPSGVPARFSGSGSGTSYSLTISTIESEDAATYYCHQYHRSPQFTFGSGTKLEIKR
notes: Purified murine monoclonal antibody from hybridoma PTA-7660; also called mu37.3D7; 37.3D7 antibody
**Q.** Does B4 bind (murine EphA2 receptor)?
**A.** binds

**Q.** What about the Kd (human EphA2 receptor [5]) of the same binder?
**A.** 0.3 nM

**Q.** What about the Kd [2] of the same binder?
**A.** 0.15 nM

B5: murine anti-EphA2 monoclonal antibody 37.1F5 (antibody, V domains shown)
VH: EVQLQQSGPELVKPGASMKISCRASGYSFTGYTMNWVRQSHGKNLEWIGLINPHNGGSSYNLKFKGKATLTVDKSSSTAYMELLSLTSEDSAVYYCVRWGDYGSFAYWGQGTLVTVSA
VL: B2 VL with G9A, Y32F, N34Y, M37I, H38Y, A44P, L100P, A104G, L110I
notes: Purified murine monoclonal antibody from hybridoma PTA-7661; also called mu37.1F5; 37.1F5 antibody
**Q.** For B5, which Kd (human EphA2 receptor [1]) is on record?
**A.** 0.01 nM

**Q.** What about the Kd [2] of the same binder?
**A.** 0.05 nM

**Q.** And the Kd (human EphA2 receptor [3])?
**A.** 0.07 nM
